Assay results published in article PMC5077683.
Where no end group is shown, it is not given here. The star is where a group is joined. Prodan = Prodan fluorogenic core conjugated to Cys (C*)

Tests used:
[1] = target: glutathione S-transferase (GST); assay: ITC
[2] = target: glutathione S-transferase (GST); assay: other fluorescence titration

Question: Which results are given for NTVSC(Prodan)HGF [Prodan-evolver NTVSC*HGF (1)]?
Answer: Kd [1]: 2.4 µM; Kd [2]: 5.2 µM
